# Test results: patent US20250145729A1 (DENALI THERAPEUTICS, published 2025)
# Numbering of substitutions follows the chain as printed. Numbers in names are those of the source.
# T1: circularly permuted human TfR apical domain (human)
# T1 construct: TfR residues 326-379 stand N-terminal to 194-296, loop 297-325 deleted; also called huTfR Apical Domain
# T1 chain: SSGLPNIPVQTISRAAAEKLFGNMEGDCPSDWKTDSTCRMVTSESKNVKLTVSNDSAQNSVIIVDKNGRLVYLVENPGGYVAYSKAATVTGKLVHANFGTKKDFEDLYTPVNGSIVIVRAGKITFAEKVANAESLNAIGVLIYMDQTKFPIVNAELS
# T2: circularly permuted cyno TfR apical domain (cynomolgus monkey)
# T2 construct: same design as the human construct; also called cyTfR Apical Domain; cynomolgus TfR apical domain
# T2 chain: T1 chain with R39K, S45N, N47S, R69G, Y108D, T109S, N153K, E155D
# B1: 6.5.11.1 (Fc fusion)
# chain: APEAAGGPSVFLFPPKPKDTLMISRTPEVTCVVVDVSHEDPEVKFNWYVDGVEVHNAKTKPREEQYNSTYRVVSVLTVLHQDWLNGKEYKCKVSNKALGAPIEKTISKAKGQPREPQVYTLPPSRDELTKNQVSLTCLVKGFYPSDIAVNWFSNGQIENNYKTTPPVLDSDGSFFLYSKLTVDKSRWQQGNLFACEVMHEALHNHYTYKLLSLSPGK
# notes: P329G+LALA
# B2: 6.5.11.5.42 (Fc fusion)
# chain: B1 chain with N150Y, N154G, I157R
# notes: P329G+LALA
# B3: 6.5.11.7.122 (Fc fusion)
# chain: B1 chain with N150F, I157R
# notes: bivalent; P329G+LALA
# B4: 42.2.1.2 (Fc fusion)
# chain: B1 chain with N150E, S153Y, N154D, G155D, Q156S, I157K, E158L, N159T
# notes: bivalent; P329G+LALA
# B5: 42.2.3-1H (Fc fusion)
# chain: B1 chain with N150E, S153Y, N154G, G155N, Q156A, I157K, N159T
# notes: P329G+LALA
# B6: 42.8.16 (Fc fusion)
# chain: B1 chain with N150E, N154G, G155A, I157K, E158L
# notes: bivalent; P329G+LALA
# B7: 42.8.17 (Fc fusion)
# chain: B1 chain with N150E, N154G, G155A, I157K, E158L, N159T
# notes: bivalent; P329G+LALA
# B8: 42.8.55 (Fc fusion)
# chain: B1 chain with N150E, N154D, G155A, Q156S, I157K
# notes: bivalent; P329G+LALA
# B9: 42.8.56 (Fc fusion)
# chain: B1 chain with N150E, N154D, G155A, Q156S, I157K, N159T
# notes: bivalent; P329G+LALA
# B10: 42.8.57 (Fc fusion)
# chain: B1 chain with N150E, N154D, G155A, Q156S, I157K, N159S
# notes: bivalent; P329G+LALA
# B11: 42.8.63 (Fc fusion)
# chain: B1 chain with N150E, N154D, G155D, I157K, N159S
# notes: bivalent; P329G+LALA
# B12: 42.8.64 (Fc fusion)
# chain: B1 chain with N150E, N154D, G155D, I157K, E158L
# notes: bivalent; P329G+LALA
# B13: 42.8.71 (Fc fusion)
# chain: B1 chain with N150E, N154D, G155D, Q156S, I157K, E158L, N159T
# notes: bivalent; P329G+LALA
# B14: 42.8.77 (Fc fusion)
# chain: B1 chain with N150E, N154E, I157K, E158L, N159T
# notes: bivalent; P329G+LALA
# B15: 42.8.87 (Fc fusion)
# chain: B1 chain with N150E, N154E, G155A, I157K, N159S
# notes: bivalent; P329G+LALA
# B16: 42.8.88 (Fc fusion)
# chain: B1 chain with N150E, N154E, G155A, I157K, E158L
# notes: bivalent; P329G+LALA
# B17: 42.8.94 (Fc fusion)
# chain: B1 chain with N150E, N154E, G155A, Q156S, I157K, E158L
# notes: bivalent; P329G+LALA
# B18: 42.8.95 (Fc fusion)
# chain: B1 chain with N150E, N154E, G155A, Q156S, I157K, E158L, N159T
# notes: bivalent; P329G+LALA
# B19: 42.8.96 (Fc fusion)
# chain: B1 chain with N150E, N154E, G155A, Q156S, I157K, E158L, N159S
# notes: bivalent; P329G+LALA
# B20: 42.8.99 (Fc fusion)
# chain: B1 chain with N150E, N154E, G155D, I157K, N159S
# notes: bivalent; P329G+LALA
# B21: 42.8.109 (Fc fusion)
# chain: B1 chain with N150E, S153Y, N154G, I157K
# notes: bivalent; P329G+LALA
# B22: 42.8.110 (Fc fusion)
# chain: B1 chain with N150E, S153Y, N154G, I157K, N159T
# notes: bivalent; P329G+LALA
# B23: 42.8.112 (Fc fusion)
# chain: B1 chain with N150E, S153Y, N154G, I157K, E158L
# notes: bivalent; P329G+LALA
# B24: 42.8.113 (Fc fusion)
# chain: B1 chain with N150E, S153Y, N154G, I157K, E158L, N159T
# notes: bivalent; P329G+LALA
# B25: 42.8.114 (Fc fusion)
# chain: B1 chain with N150E, S153Y, N154G, I157K, E158L, N159S
# notes: bivalent; P329G+LALA
# B26: 42.8.118 (Fc fusion)
# chain: B1 chain with N150E, S153Y, N154G, Q156S, I157K, E158L
# notes: bivalent; P329G+LALA
# B27: 42.8.127 (Fc fusion)
# chain: B1 chain with N150E, S153Y, N154G, G155A, Q156S, I157K
# notes: bivalent; P329G+LALA
# B28: 42.8.128 (Fc fusion)
# chain: B1 chain with N150E, S153Y, N154G, G155A, Q156S, I157K, N159T
# notes: bivalent; P329G+LALA
# B29: 42.8.137 (Fc fusion)
# chain: B1 chain with N150E, S153Y, N154G, G155D, I157K, E158L, N159T
# notes: bivalent; P329G+LALA
# B30: 42.8.139 (Fc fusion)
# chain: B1 chain with N150E, S153Y, N154G, G155D, Q156S, I157K
# notes: bivalent; P329G+LALA
# B31: 42.8.143 (Fc fusion)
# chain: B1 chain with N150E, S153Y, N154G, G155D, Q156S, I157K, E158L, N159T
# notes: bivalent; P329G+LALA
# B32: 42.8.144 (Fc fusion)
# chain: B1 chain with N150E, S153Y, N154G, G155D, Q156S, I157K, E158L, N159S
# notes: bivalent; P329G+LALA
# B33: 42.8.149 (Fc fusion)
# chain: B1 chain with N150E, S153Y, N154D, I157K, E158L, N159T
# notes: bivalent; P329G+LALA
# B34: 42.8.150 (Fc fusion)
# chain: B1 chain with N150E, S153Y, N154D, I157K, E158L, N159S
# notes: bivalent; P329G+LALA
# B35: 42.8.151 (Fc fusion)
# chain: B1 chain with N150E, S153Y, N154D, Q156S, I157K
# notes: bivalent; P329G+LALA
# B36: 42.8.152 (Fc fusion)
# chain: B1 chain with N150E, S153Y, N154D, Q156S, I157K, N159T
# notes: bivalent; P329G+LALA
# B37: 42.8.153 (Fc fusion)
# chain: B1 chain with N150E, S153Y, N154D, Q156S, I157K, N159S
# notes: bivalent; P329G+LALA
# B38: 42.8.156 (Fc fusion)
# chain: B1 chain with N150E, S153Y, N154D, Q156S, I157K, E158L, N159S
# notes: bivalent; P329G+LALA
# B39: 42.8.157 (Fc fusion)
# chain: B1 chain with N150E, S153Y, N154D, G155A, I157K
# notes: bivalent; P329G+LALA
# B40: 42.8.159 (Fc fusion)
# chain: B1 chain with N150E, S153Y, N154D, G155A, I157K, N159S
# notes: bivalent; P329G+LALA
# B41: 42.8.162 (Fc fusion)
# chain: B1 chain with N150E, S153Y, N154D, G155A, I157K, E158L, N159S
# notes: bivalent; P329G+LALA
# B42: 42.8.163 (Fc fusion)
# chain: B1 chain with N150E, S153Y, N154D, G155A, Q156S, I157K
# notes: bivalent; P329G+LALA
# B43: 42.8.166 (Fc fusion)
# chain: B1 chain with N150E, S153Y, N154D, G155A, Q156S, I157K, E158L
# notes: bivalent; P329G+LALA
# B44: 42.8.167 (Fc fusion)
# chain: B1 chain with N150E, S153Y, N154D, G155A, Q156S, I157K, E158L, N159T
# notes: bivalent; P329G+LALA
# B45: 42.8.168 (Fc fusion)
# chain: B1 chain with N150E, S153Y, N154D, G155A, Q156S, I157K, E158L, N159S
# notes: bivalent; P329G+LALA
# B46: 42.8.172 (Fc fusion)
# chain: B1 chain with N150E, S153Y, N154D, G155D, I157K, E158L
# notes: bivalent; P329G+LALA
# B47: 42.8.173 (Fc fusion)
# chain: B1 chain with N150E, S153Y, N154D, G155D, I157K, E158L, N159T
# notes: bivalent; P329G+LALA
# B48: 42.8.174 (Fc fusion)
# chain: B1 chain with N150E, S153Y, N154D, G155D, I157K, E158L, N159S
# notes: bivalent; P329G+LALA
# B49: 42.8.175 (Fc fusion)
# chain: B1 chain with N150E, S153Y, N154D, G155D, Q156S, I157K
# notes: bivalent; P329G+LALA
# B50: 42.8.181 (Fc fusion)
# chain: B1 chain with N150E, S153Y, N154E, I157K
# notes: bivalent; P329G+LALA
# B51: 42.8.182 (Fc fusion)
# chain: B1 chain with N150E, S153Y, N154E, I157K, N159T
# notes: bivalent; P329G+LALA
# Target: T1, circularly permuted human TfR apical …
# Assay: SPR, supernatant, anti-Fab capture
# Protocol: (§1) Clones were expressed in HEK293 cells. Supernatants were captured for SPR by GE Healthcare anti-human Fab capture kit and the affinity to human and cyno TfR apical domain was measured (Table 30). The clones in Table 30 were bivalent and each TfR-binding Fc polypeptide also contained P329G and LALA mutations.
row,Binder,Kd
1,B1,10 µM
2,B2,2 µM
3,B3,4.6 µM
4,B4,0.507 µM
5,B5,0.22 µM
6,B6,7.81 µM
7,B7,10.4 µM
8,B8,6.16 µM
9,B9,4.83 µM
10,B10,4.9 µM
11,B11,4.19 µM
12,B12,5.69 µM
13,B13,3 µM
14,B14,8.1 µM
15,B15,1.66 µM
16,B16,9.16 µM
17,B17,4.07 µM
18,B18,4.13 µM
19,B19,9.44 µM
20,B20,6.38 µM
21,B21,2.02 µM
22,B22,1.76 µM
23,B23,1.14 µM
24,B24,1.61 µM
25,B25,1.81 µM
26,B26,0.867 µM

row,Binder,Kd
1,B27,0.633 µM
2,B28,0.654 µM
3,B29,1.18 µM
4,B30,0.85 µM
5,B31,0.454 µM
6,B32,0.47 µM
7,B33,2.38 µM
8,B34,2.65 µM
9,B35,1.51 µM
10,B36,1.02 µM
11,B37,1.84 µM
12,B38,1.39 µM
13,B39,2.1 µM
14,B40,1.32 µM
15,B41,1.19 µM
16,B42,1.38 µM
17,B43,0.855 µM
18,B44,0.502 µM
19,B45,0.531 µM
20,B46,0.795 µM
21,B47,0.603 µM
22,B48,0.726 µM
23,B49,1.05 µM
24,B50,2.78 µM
25,B51,2.29 µM

# Target: T2, circularly permuted cyno TfR apical …
# Assay: SPR, supernatant, anti-Fab capture
# Protocol: as §1
row,Binder,Kd
1,B4,9.14 µM
2,B5,2 µM
3,B9,28.4 µM
4,B11,4.94 µM
5,B13,12.9 µM
6,B17,22.2 µM
7,B18,23.1 µM
8,B19,21.9 µM
9,B21,13.6 µM
10,B22,15.8 µM
11,B23,13.3 µM
12,B24,34.3 µM
13,B25,18.3 µM
14,B26,4.29 µM
15,B27,3.04 µM
16,B28,5.45 µM
17,B29,12.6 µM
18,B30,6.1 µM
19,B31,5.18 µM

row,Binder,Kd
1,B32,3.87 µM
2,B33,16 µM
3,B34,11.8 µM
4,B35,13.1 µM
5,B36,10.9 µM
6,B37,14.5 µM
7,B38,13.3 µM
8,B39,15.5 µM
9,B40,10.8 µM
10,B41,23.2 µM
11,B42,7.82 µM
12,B43,5 µM
13,B44,6.59 µM
14,B45,5.7 µM
15,B47,6.72 µM
16,B48,7.78 µM
17,B49,15.8 µM
18,B50,12.1 µM
19,B51,14.4 µM
